Reference: patent US20170145086A1 (VISTERRA, published 2017)
Substitutions are numbered along the chain they refer to.

T1: HA-GCN4 hAPRIL (amino acid residues 105-250) (human, UniProt O75888 105-250)
T1 construct: Bought (R&D Systems); also called HA-tagged GCN4 human APRIL; HA-GCN4-huAPRIL; not shown: N-terminal HA tag; GCN4 isoleucine zipper oligomerization domain
T1 sequence: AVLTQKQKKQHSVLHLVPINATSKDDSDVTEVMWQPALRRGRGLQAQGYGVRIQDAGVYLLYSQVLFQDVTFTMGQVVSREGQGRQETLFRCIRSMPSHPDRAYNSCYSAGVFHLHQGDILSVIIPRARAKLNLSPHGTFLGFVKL

B1: 4540-033 (antibody, V domains shown)
VH: QVQLVQSGAEVKKPGASVKVSCKASGYTFADYYINWVRQAPGQGLEWMGWIFPGSGSTYYAQKLQGRVTMTTDTSTSTAYMELRSLRSDDTAVYYCARGDSGRAMDYWGQGTLVTVSS
VL: DIQMTQSPSSLSASVGDRVTITCQASQDINKYLAWYQHKPGKAPKLLIHYTSTLETGVPSRFSGSGSGTDFTFTISSLQPEDIATYYCLQYDNLLTFGGGTKVEIK
B2: monoclonal antibody 3327 (antibody, V domains shown)
VH: EVQLQQSGPELVKPGASVKMSCKASGYSFTGYFMNWVKQSHGKSLEWIGRINPYNGDTFYNQKFKGKATLTVDKSSSTAHMELRSLTSEDSALYYCASEGDGYYWYFDVWGAGTTVTVSS
VL: not shown
B3: 3934 (antibody, V domains shown)
VH: QVQLQQSGPELVKPGASVKLSCKAAGYIFTDYTINWVKQSPGQGLEWIGWIYPGSGNRKYNDKFKGKATMTADKSSSTAYMQLSSLTSEDSAVYFCARESNYVGYYAMDYWGQGTSVTVSS
VL: DVLMTQTPLSLPVSLGDQASISCRSSQSVVNSNGNTYLEWYLQKPGQSPNLLIYKVSNRFSGVPDRFSGSGSGTDFTLKISRVEAEDLGVYYCFQGSHVPWTFGGGTKLEIK
notes: also called monoclonal antibody 3934
B4: HuTACI-Fc-001 (Fc fusion, human, UniProt O14836 29-110, looked up)
chain: VAMRSCPEEQYWDPLLGTCMSCKTICNHQSQRTCAAFCRSLSCRKEQGKFYDHLLRDCISCASICGQHPKQCAYFCENKLRS
notes: range 29-110; also called human TACI-Fc; recombinant TACI-Fc; not shown: Fc portion of human IgG1 beginning at position E98 in CH1
B5: 2419-0406 (antibody, V domains shown)
VH: QVQLVQSGAEVKKPGSSVKVSCKASGYTFTDYTIHWVRQAPGQGLEWMGWIYPLRGSINYAEKFKGRVTLTADKSTSTVYMELSSLRSEDTAVYFCARHGAYYSNAFDYWGQGTLVTVSS
VL: EIVMTQSPATLSVSPGERATLSCRASESVDNDGIRFLHWYQQKPGQAPRLLIYRASTRATGIPARFSGSGSRTEFTLTISSLQSEDFAVYYCQQSNKDPYTFGGGTKVEIK
B6: 2419-1310 (antibody, V domains shown)
VH: B5 VH with S16A, P41T, E62Q, K65Q, L70M, D73N, T76I
VL: DIVMTQSPDSLAVSLGERATINCKSSQSVDNDGIRFLHWYQQKPGQPPKLLIYRASTRESGVPDRFSGSGSGTDFTLTISSLQAEDVAVYYCQQSNKDPYTFGGGTKVEIK
B7: 2419-0806 (antibody, V domains shown)
VH: EVQLVQSGAEVKKPGESLKISCKASGYTFTDYTIHWVRQMPGKGLEWMGWIYPLRGSINYSPSFQGQVTISADKSISTVYLQWSSLKASDTAMYFCARHGAYYSNAFDYWGQGTLVTVSS
VL: B5 VL
B8: 2419-1305 (antibody, V domains shown)
VH: B5 VH with S16A, P41T, E62Q, K65Q, L70M, D73N, T76I
VL: B5 VL with T57N, A59E, R72G
B9: 2419-1306 (antibody, V domains shown)
VH: B5 VH with S16A, P41T, E62Q, K65Q, L70M, D73N, T76I
VL: B5 VL
B10: monoclonal antibody 2419-0205 (antibody, IgG2, V domains shown)
VH: B5 VH with E62Q, K65Q, L70I, V79A
VL: B5 VL with T57N, A59E, R72G

Experiments:
[1] = biological target: T1, HA-GCN4 hAPRIL (amino acid residues …); assay: blocking ELISA; blocked: human APRIL binding to TACI-Fc
[2] = biological target: T1, HA-GCN4 hAPRIL (amino acid residues …); assay: blocking ELISA; blocked: human APRIL binding to BCMA-Fc
Method: (§1) Recombinant TACI-Fc or BCMA-Fc was coated on 96 well plates in 0.1 M carbonate-bicarbonate buffer (pH 9.6), overnight at 4° C. Plates were washed three times with 1×PBST (PBS+0.025% Tween 20) followed by blocking with 1% BSA in 1×PBS, 37° C. for 1 hour. All subsequent wash steps were carried out with 1×PBST. To assess antibody blocking, either 15 ng/mL or 50 ng/mL HA-GCN4-huAPRIL was preincubated with varying antibody concentrations ranging from 0.03-30 μg/mL in binding buffer comprised of 1% BSA and 0.025% Tween-20 in 1×PBS. Preincubation was carried out at 30° C. for 1 hour with mixing. Antibody-APRIL premix with 50 ng/mL APRIL or 15 ng/mL APRIL was then added to TACI-Fc coated or BCMA-Fc coated plates, respectively, and incubated for an additional hour at 30° C. HA-tagged APRIL binding to either receptor was quantified using a goat polyclonal anti-HA tag-HRP antibody (Abcam) added at a 1:10000 dilution followed by colorimetric development using 100 μl/well of freshly prepared TMB substrate (KPL) carried out for up to 30 minutes at room temperature before quenching enzymatic reaction by the addition of 1N sulfuric acid. ELISA signal was quantified by absorbance at 450 nm. ELISA data was analyzed by non-linear regression. IC₅₀ values were calculated based on a 4 parameter fit of antibody titration curves. […] Non-blocking antibodies Aprly-1 or Aprly-5 (Enzo Biosciences) were used as negative controls. Mouse specific, blocking antibody aprily-1-1 (Adipogen) was generally used as a positive control in experiments using mouse APRIL (HA-GCN4-mAPRIL).
Assay is based on receptor blocking ELISA using recombinant human APRIL (R&D Systems) and either human TACI-Fc (FIG. 30A) or BCMA-Fc (FIG. 30B).

[3] = biological target: T1, HA-GCN4 hAPRIL (amino acid residues …); assay: blocking ELISA, 4-parameter fit; blocked: human APRIL binding to human TACI-Fc
Method: as §1

[4] = biological target: T1, HA-GCN4 hAPRIL (amino acid residues …); assay: blocking ELISA, 4-parameter fit; blocked: human APRIL binding to human BCMA-Fc
Method: as §1

[5] = biological target: T1, HA-GCN4 hAPRIL (amino acid residues …); assay: blocking ELISA; blocked: human APRIL binding to human BCMA-Fc; parameters: concentration or dose not given beside the values
Method: as §1

[6] = biological target: T1, HA-GCN4 hAPRIL (amino acid residues …); assay: blocking ELISA; blocked: human APRIL binding to human TACI-Fc; parameters: concentration or dose not given beside the values
Method: as §1

[7] = biological target: T1, HA-GCN4 hAPRIL (amino acid residues …); assay: blocking ELISA; blocked: human APRIL binding to human BCMA-Fc; parameters: concentration or dose not given beside the values; remark: listed apart in the source
Method: (§2) FIGS. 19A-19B depict the antibody inhibition of APRIL binding to TNFSF receptors TACI (FIG. 19A) and BCMA (FIG. 19B). Assay is based on blocking ELISA using recombinant human APRIL (R&D Systems) and Human TACI-Fc. Inhibition was analyzed by non-linear regression using a four parameter fit.
as §1

[8] = biological target: T1, HA-GCN4 hAPRIL (amino acid residues …); assay: blocking ELISA; blocked: human APRIL binding to human TACI-Fc; parameters: concentration or dose not given beside the values; remark: listed apart in the source
Method: as §2, §1

[9] = biological target: T1, HA-GCN4 hAPRIL (amino acid residues …); assay: blocking ELISA, 4-parameter fit; blocked: human APRIL binding to human TACI-Fc; remark: listed apart in the source
Method: as §2, §1

[10] = biological target: T1, HA-GCN4 hAPRIL (amino acid residues …); assay: blocking ELISA, 4-parameter fit; blocked: human APRIL binding to human BCMA-Fc; remark: listed apart in the source
Method: as §2, §1

[11] = biological target: T1, HA-GCN4 hAPRIL (amino acid residues …); assay: indirect ELISA on human APRIL; column head prints IC50 (pM), legend paragraph 725 calls the values EC50
Excerpt: Purified antibodies were further characterized for APRIL binding, APRIL species cross reactivity (human APRIL vs. mouse APRIL), and receptor blocking activity using TACI-Fc. For binding, an APRIL-based indirect ELISA was used to determine by first approximation the relative affinity of purified anti-APRIL antibodies to either human APRIL or mouse APRIL. ELISA method was as generally described above. […] Blocking and wash steps were completed as described. Binding of anti-APRIL antibodies to APRIL was quantified using an 8 point dilution of test antibody that spanned over a four log scale. Antibody binding to APRIL was detected using a rabbit anti-mouse IgG (H+L)-HRP conjugate (Jackson ImmunoResearch Laboratories). Antibody binding data was analyzed by non-linear regression analysis using a 3 parameter fit to determine max binding and apparent EC₅₀ values. […] Mouse specific antibody Apry-1-1 (Adipogen) was likewise used for quantification of antibody binding to mouse APRIL.

[12] = biological target: T1, HA-GCN4 hAPRIL (amino acid residues …); assay: ELISA on trimeric (GCN4-stabilised) human APRIL
Excerpt: APRIL trimer was stabilized by the N-terminal fusion of APRIL with an isoleucine zipper (GCN4) oligomerization domain Binding of APRIL to human TACI-Fc is shown for comparative purposes.

[13] = biological target: T1, HA-GCN4 hAPRIL (amino acid residues …); assay: indirect ELISA on human APRIL
[14] = biological target: T1, HA-GCN4 hAPRIL (amino acid residues …); assay: cell-based or functional assay

Binder | IC50 [1] [nM] | Relative Activity (normalised to 2419) [1] | IC50 [2] [nM] | Relative Activity (normalised to 2419) [2] | EC50 [13] [nM] | further results
B1 | 0.35 | 1.26 | 3.68 | 15.6 |  | 
B2 |  |  |  |  |  | IC50 [3]: 3.16 nM; IC50 [4]: 2.35 nM; % Inhibition [5]: 99%; % Inhibition [6]: 89%
B3 |  |  |  |  |  | % Inhibition [7]: 98%; % Inhibition [8]: 96%; IC50 [9]: 2.43 nM; IC50 [10]: 0.21 nM; EC50 [11]: 0.0101 nM
B4 |  |  |  |  |  | EC50 [12]: 0.103 nM
B5 | 0.33 | 1.2 | 0.25 | 1.05 |  | 
B6 | 0.3 | 1.09 | 0.27 | 1.14 | 0.00219 | 
B7 | 0.32 | 1.17 | 0.21 | 0.89 | 0.00231 | 
B8 | 0.29 | 1.06 | 0.15 | 0.62 | 0.00241 | 
B9 | 0.28 | 1.03 | 0.17 | 0.72 | 0.003 | IC50 (inhibition of APRIL-mediated BCMA NFκB signaling) [14]: ~0.3 nM; IC50 (inhibition of APRIL-mediated TACI NFκB signaling) [14]: ~0.66 nM
B10 | 0.31 | 1.12 | 0.17 | 0.71 | 0.00226 | IC50 (inhibition of APRIL-mediated BCMA NFκB signaling) [14]: ~0.32 nM; IC50 (inhibition of APRIL-mediated TACI NFκB signaling) [14]: ~0.81 nM
